One protein from patent US8357515 can be followed below.

The subject of data set [1] is LAP-mIL-4 fusion protein with aggrecanase cleavage site B05 (HNEFRQRETYMVF).
The subject of data set [2] is LAP-mIL-4 fusion protein with aggrecanase cleavage site B06 (DVQEFRGVTAVIR).

B1: ADAMTS-4 (aggrecanase-1), recombinant (enzyme, UniProt O75173 213-837, looked up, species assumed)
A disintegrin and metalloproteinase with thrombospondin motifs 4: FASLSRFVETLVVADDKMAAFHGAGLKRYLLTVMAAAAKAFKHPSIRNPVSLVVTRLVILGSGEEGPQVGPSAAQTLRSFCAWQRGLNTPEDSDPDHFDTAILFTRQDLCGVSTCDTLGMADVGTVCDPARSCAIVEDDGLQSAFTAAHELGHVFNMLHDNSKPCISLNGPLSTSRHVMAPVMAHVDPEEPWSPCSARFITDFLDNGYGHCLLDKPEAPLHLPVTFPGKDYDADRQCQLTFGPDSRHCPQLPPPCAALWCSGHLNGHAMCQTKHSPWADGTPCGPAQACMGGRCLHMDQLQDFNIPQAGGWGPWGPWGDCSRTCGGGVQFSSRDCTRPVPRNGGKYCEGRRTRFRSCNTEDCPTGSALTFREEQCAAYNHRTDLFKSFPGPMDWVPRYTGVAPQDQCKLTCQAQALGYYYVLEPRVVDGTPCSPDSSSVCVQGRCIHAGCDRIIGSKKKFDKCMVCGGDGSGCSKQSGSFRKFRYGYNNVVTIPAGATHILVRQQGNPGHRSIYLALKLPDGSYALNGEYTLMPSPTDVVLPGAVSLRYSGATAASETLSGHGPLAQPLTLQVLVAGNPQDTRLRYSFFVPRPTPSTPRPTPQDWLHRRAQILEILRRRPWAGRK
For the protein B1, the “cleavage of the fusion protein in 293T supernatant after overnight incubation at 37 C, Western blot probed with anti-IL-4 antibody” value with LAP-MMP IL-4 is “LAP-MMP IL-4 is only cleaved by MMP-1 (not cleaved by aggrecanase)”; in data set [1] it was “the Agg1 and Agg2 constructs are cleaved by ADAMTS-4”; in data set [2], “the Agg1 and Agg2 constructs are cleaved by ADAMTS-4”.
